How the values were obtained:
Details in all cases: protein: recombinant; tags: His; blunt
HIS-RVE1 [1] = target: T1, HIS-RVE1 (Arabidopsis thaliana, UniProt F4KGY6 1-387); experiment: competition; unlabelled 50x excess vs biotin-E3 probe; no effect on shift; LightShift Chemiluminescent EMSA Kit (Pierce) per manufacturer, 5% polyacrylamide gel; buffer, salt, pH and temperature not stated
HIS-RVE1 [2] = target: T1, HIS-RVE1; experiment: competition; unlabelled 50x excess vs biotin-E4 probe; no effect on shift; LightShift Chemiluminescent EMSA Kit (Pierce) per manufacturer, 5% polyacrylamide gel; buffer, salt, pH and temperature not stated
HIS-RVE1 [3] = target: T1, HIS-RVE1; experiment: EMSA; LightShift Chemiluminescent EMSA Kit (Pierce) per manufacturer, 5% polyacrylamide gel; buffer, salt, pH and temperature not stated

T1 sequence (F4KGY6 whole entry): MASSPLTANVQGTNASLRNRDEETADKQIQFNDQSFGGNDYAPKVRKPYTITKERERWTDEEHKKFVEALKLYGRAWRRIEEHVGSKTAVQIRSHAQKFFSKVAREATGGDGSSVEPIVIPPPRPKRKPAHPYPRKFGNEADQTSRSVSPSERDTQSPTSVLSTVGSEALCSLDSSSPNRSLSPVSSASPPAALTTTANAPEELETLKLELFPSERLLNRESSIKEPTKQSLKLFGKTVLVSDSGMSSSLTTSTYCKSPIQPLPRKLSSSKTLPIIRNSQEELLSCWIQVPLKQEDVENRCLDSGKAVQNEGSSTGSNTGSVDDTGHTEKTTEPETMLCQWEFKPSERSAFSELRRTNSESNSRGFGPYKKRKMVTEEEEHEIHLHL

B1: GA3ox2 E3 (3 copies) mutant (dsDNA)
DNA 1: GTTTAACGGGATAGGTTTTTGTTTAACGGGATAGGTTTTTGTTTAACGGGATAGGTTTTT
DNA 2: AAAAACCTATCCCGTTAAACAAAAACCTATCCCGTTAAACAAAAACCTATCCCGTTAAAC
Does B1 bind (HIS-RVE1 [1])?
Result: no binding

B2: GA3ox2 E4 (3 copies) mutant (dsDNA)
DNA 1: AAGTACGTCTCAGTACCAAAAAGTACGTCTCAGTACCAAAAAGTACGTCTCAGTACCAAA
DNA 2: TTTGGTACTGAGACGTACTTTTTGGTACTGAGACGTACTTTTTGGTACTGAGACGTACTT
Does B2 bind (HIS-RVE1 [2])?
Result: no binding

B3: GA3ox2 E4 (3 copies) WT (dsDNA)
DNA 1: AAGTATCATATCATACCAAAAAGTATCATATCATACCAAAAAGTATCATATCATACCAAA
DNA 2: TTTGGTATGATATGATACTTTTTGGTATGATATGATACTTTTTGGTATGATATGATACTT
Does B3 bind (HIS-RVE1 [3])?
Result: binds

B4: GA3ox2 E3 (3 copies) WT (dsDNA)
DNA 1: GTTTAACGATATTAGTTTTTGTTTAACGATATTAGTTTTTGTTTAACGATATTAGTTTTT
DNA 2: AAAAACTAATATCGTTAAACAAAAACTAATATCGTTAAACAAAAACTAATATCGTTAAAC
Does B4 bind (HIS-RVE1 [3])?
Result: binds
